Test results reported in US20220396632A1 (VERSEAU THERAPEUTICS, published 2022).
Residue numbers refer to the chain shown, from its start. Non-standard residues stand in square brackets, D forms with d. No end group written: not given here. *: point of attachment. Biotin = O=C1N[C@H]2[C@H](CS[C@H]2CCCCC(=O)*)N1; sY = N[C@@H](Cc1ccc(OS(=O)(=O)O)cc1)C(=O)O

B1: 03E05 (antibody, IgG4, V domains shown)
VH: EVKLLESGGDLAQTGGSLRLSCVASGFTFSSYPMSWVRQAPGKGLEWVSAIRRSGATQYADSVKGRFTISRDNSKNTVYLQMNSLRVEDTAVYYCAKGTYDLGQGTLVTVSS
VL: DIVMTQTPLSLPVTLGQPASISCRSSQSLVYSDGNTYLNWFHQRPGQSPRRLIYKVSNRDSGVPDRFSGSGSDTEFTLKISRVEAEDVGVYYCMQATHWPLTFGGGTKVEIK
B2: 09D11 (antibody, IgG4, V domains shown)
VH: QVQLVESGGGFIQPGGSLRLSCAASGLTFSNYAMTWVRQAPGKGLEWVSTISGGGGNTYYTDSVKGRFTISRDNSKNTLYLQMNSLKAEDTAVYRCAKGLAAALFDYWGQGTLVTVSS
VL: DIVLTQSPDSLPVTPGEPASISCRSSRSLLHSNGHNFLAWYLQKPGQSPHLLIYLGSNRASGVPDRFSGSGSGTDFTLKISRVEAEDVGIYYCMQALQTPITFGQGTRLDIK
B3: 20I15.001 (antibody, IgG4, V domains shown)
VH: EVQLVESGGGLVQPGGSLRLSCAASGFTFTDYYMSWVRQAPGKGLEWLGFIRNKANGYTTEYSASVKGRFTISRDNSKNSLYLQMNSLKTEDTAVYYCARTYLRRGYFDVWGQGTLVTVSS
VL: DIQLTQSPSTLSASVGDRVTITCRASKSVSTSGYSYMHWFQQKPGKAPKLLIYLASNLESGVPSRFSGSGSGTEFTLTISSLQPDDFATYYCQHSRELPLTFGQGTKLEIK
notes: Humanised; also called 20115.001
B4: 20I15.002 (antibody, IgG4, V domains shown)
VH: B3 VH with N56S
VL: B3 VL
notes: Humanised
B5: 20I15.003 (antibody, IgG4, V domains shown)
VH: B3 VH with Q3K, K78Q
VL: B3 VL
notes: Humanised

How the values were obtained:
SulfoTyr C4 peptide = biological target: T1, SulfoTyr C4 peptide (not fully specified; Y4, Y7 and Y9 sulfated (SO3); C-terminal biotin); experiment: ELISA, 50 nM mAb
T1 construct: also called C4 alpha chain peptide; human sulfotyrosinylated C4 peptide
T1 peptide: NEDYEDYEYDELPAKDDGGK
Procedure: (§1) Recombinant PSGL-1-hFc1 chimera protein consisting of PSGL-1's extracellular domain (ECD) served as a positive control. […] Primary antibody was added (25 ul per well) in duplicate at 50 nM in assay buffer (blocking buffer containing 0.05% Tween®20) into test and control (just blocked) wells and the plate incubated for 45 min at 37° C.

[1] = biological target: T2, Sulfotyr fibrinogen γ peptide (not fully specified; Y8 and Y12 sulfated (SO3); C-terminal biotin); experiment: ELISA, 50 nM mAb
T2 construct: also called Fibrinogen gamma peptide; human sulfotyrosinylated fibrinogen peptide
T2 peptide: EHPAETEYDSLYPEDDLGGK
Procedure: as §1

[2] = biological target: T3, Recombinant human PSGL-1(ECD)-hFc1 (R&D Systems, Cat. 3345-PS) (human, UniProt Q14242 42-305); experiment: ELISA, 50 nM mAb
T3 construct: Bought; Gln42-Val295 counted on AAC50061; also called PSGL-1-Fc; PSGL-1-hFc1 chimera; not shown: human IgG1 Fc, Pro100-Lys330
T3 sequence: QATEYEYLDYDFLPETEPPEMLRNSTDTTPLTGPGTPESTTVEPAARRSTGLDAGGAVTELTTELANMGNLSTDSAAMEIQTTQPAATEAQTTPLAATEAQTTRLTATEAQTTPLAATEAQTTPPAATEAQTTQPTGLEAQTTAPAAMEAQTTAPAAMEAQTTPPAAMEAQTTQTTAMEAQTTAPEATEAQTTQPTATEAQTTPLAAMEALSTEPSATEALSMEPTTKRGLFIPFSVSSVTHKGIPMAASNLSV
Procedure: as §1

[3] = biological target: T4, Human complement C4 protein (Millipore Sigma, Cat. 204886) (human, UniProt P0C0L4 20-675; P0C0L4 680-1446; P0C0L4 1454-1744, limits assumed, natural sulfotyrosines); experiment: ELISA, 50 nM mAb
T4 construct: mature
Procedure: as §1

[4] = biological target: T5, Human fibrinogen protein (ThermoFisher, RP-43142) (human, UniProt P02671 20-629; P02675 31-491; P02679 27-453, limits assumed, natural sulfotyrosines); experiment: ELISA, 50 nM mAb
T5 construct: mature; Native dimer with 3 pairs of non-identical chains; also called gamma-fibrinogen; γ fibrinogen protein
T5 sequence (looked up) 1: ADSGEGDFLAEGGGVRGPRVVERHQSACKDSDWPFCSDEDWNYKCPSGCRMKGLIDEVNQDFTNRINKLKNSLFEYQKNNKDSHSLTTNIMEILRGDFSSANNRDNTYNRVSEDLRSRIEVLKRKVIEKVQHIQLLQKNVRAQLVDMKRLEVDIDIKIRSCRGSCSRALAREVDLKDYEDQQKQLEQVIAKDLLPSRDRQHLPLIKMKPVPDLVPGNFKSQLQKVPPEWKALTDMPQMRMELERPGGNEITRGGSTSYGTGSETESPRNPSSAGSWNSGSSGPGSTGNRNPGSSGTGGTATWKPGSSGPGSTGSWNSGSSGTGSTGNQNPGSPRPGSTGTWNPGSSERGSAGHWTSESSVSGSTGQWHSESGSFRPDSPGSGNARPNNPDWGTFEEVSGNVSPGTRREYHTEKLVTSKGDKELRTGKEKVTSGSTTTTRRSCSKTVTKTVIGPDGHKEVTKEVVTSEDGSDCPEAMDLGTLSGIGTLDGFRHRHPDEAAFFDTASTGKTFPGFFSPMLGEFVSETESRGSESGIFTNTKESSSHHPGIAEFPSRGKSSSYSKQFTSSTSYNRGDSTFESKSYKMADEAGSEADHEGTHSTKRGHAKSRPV
T5 sequence (looked up) 2: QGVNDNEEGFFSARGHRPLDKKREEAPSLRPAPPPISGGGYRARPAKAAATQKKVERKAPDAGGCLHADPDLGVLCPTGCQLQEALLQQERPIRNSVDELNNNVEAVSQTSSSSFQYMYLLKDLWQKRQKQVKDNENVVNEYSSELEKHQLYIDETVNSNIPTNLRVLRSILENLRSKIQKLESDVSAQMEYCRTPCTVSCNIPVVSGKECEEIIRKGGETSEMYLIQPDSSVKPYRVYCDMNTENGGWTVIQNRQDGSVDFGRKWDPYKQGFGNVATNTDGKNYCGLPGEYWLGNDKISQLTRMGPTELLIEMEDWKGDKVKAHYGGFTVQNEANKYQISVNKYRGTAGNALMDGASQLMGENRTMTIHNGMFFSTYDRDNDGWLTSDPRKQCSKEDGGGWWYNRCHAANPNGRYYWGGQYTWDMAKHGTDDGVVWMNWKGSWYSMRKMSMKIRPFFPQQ
T5 sequence (looked up) 3: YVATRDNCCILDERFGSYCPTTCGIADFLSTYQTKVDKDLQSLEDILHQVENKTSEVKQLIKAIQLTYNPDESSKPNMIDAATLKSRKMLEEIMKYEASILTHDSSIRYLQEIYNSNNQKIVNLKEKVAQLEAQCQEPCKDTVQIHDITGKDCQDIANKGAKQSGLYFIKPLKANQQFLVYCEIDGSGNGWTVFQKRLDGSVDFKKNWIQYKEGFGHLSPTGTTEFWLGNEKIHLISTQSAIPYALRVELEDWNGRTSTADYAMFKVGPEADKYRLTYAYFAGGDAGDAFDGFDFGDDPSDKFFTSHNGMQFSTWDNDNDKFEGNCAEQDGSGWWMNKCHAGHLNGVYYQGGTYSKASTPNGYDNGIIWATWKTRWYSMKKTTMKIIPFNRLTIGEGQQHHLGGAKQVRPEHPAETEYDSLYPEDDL
Procedure: as §1

SulfoCCK biotin peptide = biological target: T6, SulfoCCK biotin peptide (human); experiment: ELISA, 50 nM mAb
T6 construct: also called sulfotyrosine CCK peptide
T6 peptide: SHRISDRD[sY]MGWMDFGGK(Biotin)
Procedure: as §1

[5] = biological target: T7, Sulfotyrosine CCR2b biotin peptide (human); experiment: ELISA, 50 nM mAb
T7 construct: also called CCR2b peptide
T7 peptide: TTFFD[sY]D[sY]GAPSHGGK(Biotin)
Procedure: as §1

[6] = biological target: T8, Sulfotyrosine D6 biotin peptide (human); experiment: ELISA, 50 nM mAb
T8 construct: also called D6 peptide
T8 peptide: ENSSFY[sY][sY]D[sY]LDEVAFGGK(Biotin)
Procedure: as §1

[7] = biological target: T9, Biotin PSGL-1(42-62) peptide, unmodified (human, C-terminal Lys-biotin); experiment: ELISA, immobilized biotin peptide
T9 construct: Residues 42-62 followed by GGGK-biotin; also called WT; wild-type
T9 peptide: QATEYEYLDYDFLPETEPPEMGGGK
Procedure, shortened: (§2)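 In this ELISA, half-well high binding plates (Corning Cat. #3690) received 3 ug/mL/25 ul per well of biotin-tagged PSGL-1 peptides covering residues 42 to 62, diluted in PBS, pH 7.4, and coated overnight at 4° C. Duplicate readings for each antibody were averaged and the average assay background was subtracted. PSGL-1 protein or peptide was the positive control.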

[8] = biological target: T10, Biotin Y46,48,51(SO3) PSGL-1(42-62) peptide (human, sulfotyrosine at Y46, Y48 and Y51; C-terminal Lys-biotin); experiment: ELISA, immobilized biotin peptide
T10 construct: also called fully sulfated N-terminal PSGL-1 peptide
T10 peptide: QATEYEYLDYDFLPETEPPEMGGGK
Procedure, shortened: as §2

[9] = biological target: T11, Cynomolgus PSGL-1(ECD)-hFc1 (cynomolgus macaque); experiment: ELISA, 20 nM mAb on plate cyno PSGL-1(ECD)-Fc
T11 construct: also called Cyno PSGL1-Fc; Cyno PSGL-1(ECD)-Fc
Procedure: Antibody binding to plate-immobilized cyno PSGL-1(ECD) was determined either at one concentration (20 nM) or by generating full antibody binding curves (0.003-200 nM). A typical ELISA was performed by overnight coating at 4° C. with 3 ug/mL/25 ul per well of recombinant cyno PSGL-1(ECD) protein in PBS, pH 7.4, in high binding half-well plates (Corning Cat. #3690). […] Anti-PSGL-1 IgG in assay buffer (blocking buffer containing 0.05% tween 20) was added into test and control wells (20 nM/25 ul/well) and the plate incubated for 45 min at 37° C. […] The plate was incubated for 45 min at 37° C., and mAb bound to plate-immobilized target determined at A450 nm using HRP substrate (3,3′,5,5′-tetramethylbenzidine (TMB)). For each antibody, duplicate values were averaged and assay background subtracted.

[10] = biological target: T12, PSGL-1 endogenously expressed on HL-60 cells (UniProt Q14242 42-412); experiment: flow cytometry on HL-60 cells
T12 construct: whole, on cells
T12 sequence (looked up): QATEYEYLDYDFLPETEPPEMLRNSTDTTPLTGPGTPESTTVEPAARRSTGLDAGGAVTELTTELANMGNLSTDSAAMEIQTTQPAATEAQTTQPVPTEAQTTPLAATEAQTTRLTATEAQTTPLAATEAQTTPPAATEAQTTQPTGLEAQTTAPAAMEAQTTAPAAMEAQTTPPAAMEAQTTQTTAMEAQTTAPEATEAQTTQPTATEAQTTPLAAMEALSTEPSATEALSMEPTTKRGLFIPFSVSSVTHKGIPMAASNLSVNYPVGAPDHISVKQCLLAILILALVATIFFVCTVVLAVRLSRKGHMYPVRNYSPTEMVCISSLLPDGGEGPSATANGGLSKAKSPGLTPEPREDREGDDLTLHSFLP
Procedure: (§3) A typical flow cytometry assay was performed by resuspending HL-60 cells in FACS buffer (5% FBS and 0.05% Sodium Azide in PBS, pH 7.2) on ice, pelleting cells by centrifugation at 500×g for 3 min, washing cells with FACS buffer, and then blocking Fc receptors on the cells with Fc block (human TruStain FcX™, BioLegend Cat. #422302) on ice for 10 min. After washing, 50,000 cells/50 ul in FACS buffer was added to each well of a 96-well round bottomed plate (Costar, Cat. #3797), and 50 ul of serially diluted (0.06 nM-1.0 uM) test or isotype control antibody was added into duplicate wells. The plate was covered and incubated on ice for 1 h. After washing, Phycoerythrin (PE) conjugated anti-human IgG secondary antibody (Abcam; Cat. #ab99825) was added to each well and the plate incubated in the dark on ice for 30 min. After washing, the cells were fixed (1% paraformaldhyde).

[11] = biological target: T12, PSGL-1 endogenously expressed on HL-60 …; experiment: flow cytometry on HL-60 cells; against parent 20I15
Procedure: as §3

T11 sequence (chain, as listed by the source limits assumed): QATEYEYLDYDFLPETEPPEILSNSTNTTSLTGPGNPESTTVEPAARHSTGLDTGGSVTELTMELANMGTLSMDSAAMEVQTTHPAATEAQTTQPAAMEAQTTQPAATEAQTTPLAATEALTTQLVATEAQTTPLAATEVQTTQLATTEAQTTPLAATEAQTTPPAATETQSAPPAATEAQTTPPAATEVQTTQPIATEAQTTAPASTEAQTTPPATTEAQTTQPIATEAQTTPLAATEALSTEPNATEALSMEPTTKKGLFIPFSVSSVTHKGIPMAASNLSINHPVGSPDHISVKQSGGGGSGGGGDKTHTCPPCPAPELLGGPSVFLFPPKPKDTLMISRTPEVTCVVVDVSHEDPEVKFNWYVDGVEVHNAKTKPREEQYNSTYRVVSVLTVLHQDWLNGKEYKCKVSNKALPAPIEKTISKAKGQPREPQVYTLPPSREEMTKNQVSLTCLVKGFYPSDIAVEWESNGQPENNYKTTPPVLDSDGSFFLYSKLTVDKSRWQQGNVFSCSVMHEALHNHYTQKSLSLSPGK
T4 sequence (P0C0L4 20-675 limits assumed, form in doubt, chain 1 of 3): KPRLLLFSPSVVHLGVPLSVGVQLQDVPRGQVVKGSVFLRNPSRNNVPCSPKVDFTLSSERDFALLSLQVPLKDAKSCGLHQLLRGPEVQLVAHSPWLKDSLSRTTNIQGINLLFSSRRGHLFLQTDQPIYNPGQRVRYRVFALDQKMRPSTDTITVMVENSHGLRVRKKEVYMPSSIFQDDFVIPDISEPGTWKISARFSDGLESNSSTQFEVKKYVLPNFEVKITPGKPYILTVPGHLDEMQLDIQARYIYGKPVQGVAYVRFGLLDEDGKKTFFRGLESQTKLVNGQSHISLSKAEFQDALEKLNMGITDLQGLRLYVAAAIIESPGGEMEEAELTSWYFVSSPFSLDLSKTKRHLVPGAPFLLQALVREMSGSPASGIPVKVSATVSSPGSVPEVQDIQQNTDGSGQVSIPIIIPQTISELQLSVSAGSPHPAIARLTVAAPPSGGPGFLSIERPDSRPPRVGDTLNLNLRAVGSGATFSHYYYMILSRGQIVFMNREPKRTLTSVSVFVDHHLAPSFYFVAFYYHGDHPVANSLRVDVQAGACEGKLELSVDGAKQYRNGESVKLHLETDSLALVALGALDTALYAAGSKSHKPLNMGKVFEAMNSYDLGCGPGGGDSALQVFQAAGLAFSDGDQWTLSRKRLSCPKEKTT
T4 sequence (P0C0L4 680-1446 limits assumed, form in doubt, chain 2 of 3): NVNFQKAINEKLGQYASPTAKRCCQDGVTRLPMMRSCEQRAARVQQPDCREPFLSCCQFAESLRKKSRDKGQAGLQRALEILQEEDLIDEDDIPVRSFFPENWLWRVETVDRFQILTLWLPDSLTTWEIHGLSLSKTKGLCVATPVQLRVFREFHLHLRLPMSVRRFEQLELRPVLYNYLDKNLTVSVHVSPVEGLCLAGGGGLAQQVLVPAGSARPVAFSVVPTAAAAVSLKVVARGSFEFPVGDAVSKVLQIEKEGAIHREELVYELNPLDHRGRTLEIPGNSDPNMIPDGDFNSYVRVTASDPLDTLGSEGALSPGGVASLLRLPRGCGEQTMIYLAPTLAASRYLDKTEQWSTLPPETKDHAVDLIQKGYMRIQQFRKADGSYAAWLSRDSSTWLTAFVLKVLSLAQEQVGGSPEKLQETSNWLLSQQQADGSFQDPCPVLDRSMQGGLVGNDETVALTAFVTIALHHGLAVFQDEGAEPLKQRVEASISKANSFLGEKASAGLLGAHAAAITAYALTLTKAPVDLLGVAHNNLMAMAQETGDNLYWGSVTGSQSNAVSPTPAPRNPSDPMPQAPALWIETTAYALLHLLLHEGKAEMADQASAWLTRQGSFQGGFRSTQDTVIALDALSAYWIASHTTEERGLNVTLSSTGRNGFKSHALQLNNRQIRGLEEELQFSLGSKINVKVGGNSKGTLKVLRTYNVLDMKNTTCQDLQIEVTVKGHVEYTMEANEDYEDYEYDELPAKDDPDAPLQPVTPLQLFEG
T4 sequence (P0C0L4 1454-1744 limits assumed, form in doubt, chain 3 of 3): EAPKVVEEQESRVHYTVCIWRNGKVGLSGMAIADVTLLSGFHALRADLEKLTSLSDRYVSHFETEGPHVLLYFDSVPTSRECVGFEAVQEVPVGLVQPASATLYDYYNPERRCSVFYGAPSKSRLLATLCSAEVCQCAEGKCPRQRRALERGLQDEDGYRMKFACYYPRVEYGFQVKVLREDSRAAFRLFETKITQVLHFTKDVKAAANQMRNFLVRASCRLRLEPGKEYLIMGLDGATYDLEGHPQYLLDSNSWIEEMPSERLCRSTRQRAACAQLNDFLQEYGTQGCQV

Binder | binding normalized to PSGL-1 (SulfoTyr C4 peptide) | binding normalized to PSGL-1 [1] | A450nm [2] | binding normalized to PSGL-1 [3] | binding normalized to PSGL-1 [4] | binding normalized to PSGL-1 (SulfoCCK biotin peptide) | binding normalized to PSGL-1 [5] | binding normalized to PSGL-1 [6] | EC50 [7] | A450nm, 20 nM mAb [8] | EC50 [8] | A450nm [9] | EC50 [10] | HL-60 EC50 (normalized) [11]
B1 | 0.61 | 0.59 | 2.28 A450nm | 0.47 | 0.05 | 0.23 | 0.27 | 0.52 | 6200 pM | 2.61 A450nm | 160 pM | 0.39 A450 nm | – | –
B2 | 0.05 | 0.09 | 2.65 A450nm | 0.32 | 0.07 | 0.06 | 0.04 | 0.26 | ~50 pM | 2.79 A450nm | 50 pM | 2.11 A450 nm | – | –
B3 | – | – | – | – | – | – | – | – | – | – | – | – | 500 pM | 0.4 fold
B4 | – | – | – | – | – | – | – | – | – | – | – | – | 1000 pM | 0.7 fold
B5 | – | – | – | – | – | – | – | – | – | – | – | – | 1600 pM | 1.1 fold
